Experimental data published in the Immune Epitope Database (IEDB).
pIC50, pKd: −log10 of the molar value.

Columns and labels:
HLA-A*11:01 [1] = test: IEDB peptide-MHC binding, purified MHC/competitive/fluorescence; ≥ and ≤ were set here for values at or beyond the usual limits of such assays; conditions: source organism: Variola virus
HLA-A*02:03 = test: IEDB peptide-MHC binding, purified MHC/competitive/radioactivity; filed as Kd, often an IC50 or EC50 that approximates it; ≥ and ≤ were set here for values at or beyond the usual limits of such assays
HLA-A*02:06 = test: as above
HLA-A*02:01 [2] = test: as above
HLA-A*02:02 = test: as above
HLA-A*68:02 = test: as above
HLA-B*15:03 = test: as above
HLA-B*15:01 [3] = test: as above
HLA-A*32:01 = test: as above; conditions: source organism: Vaccinia virus WR
HLA-B*08:01 [4] = test: as above; conditions: source organism: Vaccinia virus WR
HLA-A*30:01 = test: as above; conditions: source organism: Vaccinia virus WR
HLA-B*57:01 = test: IEDB peptide-MHC binding, purified MHC/direct/fluorescence; filed as Kd, often an IC50 or EC50 that approximates it; ≥ and ≤ were set here for values at or beyond the usual limits of such assays
HLA-B*58:01 = test: as above
HLA-B*15:17 = test: as above
HLA-B*46:01 = test: IEDB peptide-MHC binding, purified MHC/competitive/fluorescence; filed as Kd, often an IC50 or EC50 that approximates it; ≥ and ≤ were set here for values at or beyond the usual limits of such assays
HLA-B*44:02 [5] = test: IEDB peptide-MHC binding, purified MHC/competitive/radioactivity; filed as Kd, often an IC50 or EC50 that approximates it; ≥ and ≤ were set here for values at or beyond the usual limits of such assays
HLA-B*18:01 = test: as above
HLA-B*44:03 = test: as above
HLA-B*40:02 = test: as above
HLA-B*45:01 = test: as above
HLA-B*40:01 [6] = test: as above
HLA-B*44:02 [7] = test: IEDB peptide-MHC binding, purified MHC/direct/fluorescence; filed as Kd, often an IC50 or EC50 that approximates it; ≥ and ≤ were set here for values at or beyond the usual limits of such assays; conditions: source organism: Giardia lamblia ATCC 50803
HLA-A*31:01 = test: as above; conditions: source organism: Giardia lamblia ATCC 50803
HLA-B*07:02 = test: as above; conditions: source organism: Giardia lamblia ATCC 50803
HLA-B*15:01 [8] = test: as above; conditions: source organism: Giardia lamblia ATCC 50803
HLA-A*11:01 [9] = test: as above; conditions: source organism: Giardia lamblia ATCC 50803
HLA-A*03:01 = test: as above; conditions: source organism: Giardia lamblia ATCC 50803
HLA-B*08:01 [10] = test: as above; conditions: source organism: Giardia lamblia ATCC 50803
HLA-A*26:01 = test: as above; conditions: source organism: Giardia lamblia ATCC 50803
HLA-A*02:01 [11] = test: as above; conditions: source organism: Giardia lamblia ATCC 50803
HLA-B*40:01 [12] = test: as above; conditions: source organism: Giardia lamblia ATCC 50803
HLA-B*27:05 = test: as above; conditions: source organism: Giardia lamblia ATCC 50803
HLA-A*69:01 = test: as above; conditions: source organism: Giardia lamblia ATCC 50803
HLA-A*01:01 = test: as above; conditions: source organism: Giardia lamblia ATCC 50803
[13] = source organism: Vaccinia virus WR
[14] = source organism: Vaccinia virus Copenhagen
[15] = source organism: Trypanosoma cruzi
[16] = source organism: Brucella melitensis
[17] = source organism: Mammarenavirus brazilense
[18] = source organism: Giardia lamblia ATCC 50803
[19] = source organism: SARS coronavirus Tor2

EIFSAWISH
pIC50 (HLA-A*11:01 [1]): 4.65

ELEQTYHAKL
pKd (HLA-A*02:03; source organism: Homo sapiens): ≤ 4.03 | pKd (HLA-A*02:06; source organism: Homo sapiens): ≤ 4.15 | pKd (HLA-A*02:01 [2]; source organism: Homo sapiens): ≤ 4.40 | pKd (HLA-A*02:02; source organism: Homo sapiens): 5.55 | pKd (HLA-A*68:02; source organism: Homo sapiens): 5.01

FKAKWLTPF
pKd (HLA-B*15:03; [13]): 10.14

FLTYLDVSV
pKd (HLA-A*02:01 [2]; source organism: Homo sapiens): ≥ 9.00

FSALPTNEF
pKd (HLA-B*15:03; [13]): 9.89

FSIYSVSCF
pKd (HLA-B*15:01 [3]; [14]): 8.51 | pKd (HLA-B*15:03; [14]): 8.12

FSNFSTSHI
pKd (HLA-B*15:01 [3]; [13]): 6.96 | pKd (HLA-A*32:01): 4.74 | pKd (HLA-B*08:01 [4]): 5.51 | pKd (HLA-B*15:03; [13]): 6.29 | pKd (HLA-A*30:01): 5.12

GLLPLLLLLG
pKd (HLA-A*02:03; [15]): 6.96 | pKd (HLA-A*02:06; [15]): 7.82 | pKd (HLA-A*02:01 [2]; [15]): 8.57 | pKd (HLA-A*02:02; [15]): 7.10 | pKd (HLA-A*68:02; [15]): 5.15

IAASNLEQF
pKd (HLA-B*57:01; [16]): 6.69 | pKd (HLA-B*58:01; [16]): 7.30 | pKd (HLA-B*15:17; [16]): 7.65 | pKd (HLA-B*46:01; source organism: Brucella melitensis bv. 1 str. 16M): 7.32

IDNQKLSYL
pKd (HLA-B*44:02 [5]; [17]): ≤ 4.11 | pKd (HLA-B*18:01; [17]): ≤ 4.11 | pKd (HLA-B*44:03; [17]): ≤ 4.11 | pKd (HLA-B*40:02; [17]): 5.19 | pKd (HLA-B*45:01; [17]): 4.75 | pKd (HLA-B*40:01 [6]; [17]): ≤ 4.12

ISAFPKNDF
pKd (HLA-B*15:03; [13]): 6.18

ISWMMKLGI
pKd (HLA-B*15:01 [3]; [13]): 6.26 | pKd (HLA-A*32:01): 7.38 | pKd (HLA-B*08:01 [4]): 5.32 | pKd (HLA-B*15:03; [13]): 6.39 | pKd (HLA-A*30:01): 5.18

ISYTYNDNW
pKd (HLA-B*44:02 [7]): ≤ 4.70 | pKd (HLA-A*31:01): ≤ 4.70 | pKd (HLA-B*07:02): ≤ 4.70 | pKd (HLA-B*57:01; [18]): 7.19 | pKd (HLA-B*15:01 [8]): ≤ 4.70 | pKd (HLA-B*58:01; [18]): 7.93 | pKd (HLA-A*11:01 [9]): ≤ 4.70 | pKd (HLA-A*03:01): ≤ 4.70 | pKd (HLA-B*15:17; [18]): 8.85 | pKd (HLA-B*08:01 [10]): ≤ 4.70 | pKd (HLA-A*26:01): ≤ 4.70 | pKd (HLA-A*02:01 [11]): ≤ 4.70 | pKd (HLA-B*40:01 [12]): ≤ 4.70 | pKd (HLA-B*27:05): ≤ 4.70 | pKd (HLA-A*69:01): ≤ 4.70

ITFHNQRDF
pKd (HLA-B*44:02 [7]): ≤ 4.70 | pKd (HLA-A*31:01): ≤ 4.70 | pKd (HLA-B*07:02): ≤ 4.70 | pKd (HLA-B*57:01; [18]): 6.90 | pKd (HLA-B*15:01 [8]): 6.83 | pKd (HLA-B*58:01; [18]): 6.78 | pKd (HLA-A*11:01 [9]): ≤ 4.70 | pKd (HLA-A*01:01): ≤ 4.70 | pKd (HLA-A*03:01): ≤ 4.70 | pKd (HLA-B*15:17; [18]): 8.28 | pKd (HLA-B*08:01 [10]): ≤ 4.70 | pKd (HLA-A*26:01): ≤ 4.70 | pKd (HLA-A*02:01 [11]): ≤ 4.70 | pKd (HLA-B*40:01 [12]): ≤ 4.70 | pKd (HLA-B*27:05): ≤ 4.70 | pKd (HLA-A*69:01): ≤ 4.70 | pKd (HLA-B*46:01; [18]): ≤ 4.70

KEGIVWVAT
pKd (HLA-B*44:02 [5]; [19]): ≤ 4.70 | pKd (HLA-B*18:01; [19]): ≤ 4.20 | pKd (HLA-B*44:03; [19]): 4.91 | pKd (HLA-B*40:02; [19]): 7.53 | pKd (HLA-B*45:01; [19]): 7.16 | pKd (HLA-B*40:01 [6]; [19]): 5.20
